# Molecular target: the molecule itself
# Test: crystal structure
protein,measurement,value
"Yersinia pestis FabG (ketoacyl-acyl carrier protein reductase) (enzyme, also called YpFabG; YpFabG TMAO) MSFEGKIALVTGASRGIGRAIAELLVERGACVIGTATSEKGAEAISAYLGENGKGLMLNVVDPTSIDTVLATIRAEFGEVDILVNNAGITRDNLLMRMKDDEWQDIIDTNLTSVFRLSKAVMRAMMKKRFGRIITIGSVVGTMGNAGQVNYAAAKAGVIGFSKSLAREVASRGITVNVVAPGFIETDMTRTLTDDQRAGILAQVPANRLGDAKEIASAVAFLASDEASYISGETLHVNGGMYMI",stoichiometry N,4
